The record followed here is publication PMC8996214, “Aptamer blocking S-TLR4 interaction selectively inhibits SARS-CoV-2 induced inflammation”.

In series [1] the target is SARS-CoV-2 spike trimer (SARS-CoV-2, UniProt P0DTC2). Kind of series: BLI. To be noted: protein: commercial; tags: His.
Series [2] concerns the target HCoV-HKU1 spike protein (HCoV-HKU1, UniProt Q5MQD0). Nature of the series: ELISA. To be noted: protein: commercial. On the technique in general: ELISA stands for enzyme-linked immunosorbent assay.
Series [3] addresses TLR4 (UniProt O00206 24-631). Nature of the series: ELISA. As to conditions: protein: commercial.
The target in series [4] is ACE2 (UniProt Q9BYF1 18-740). Kind of series: ELISA. To be noted: protein: commercial.
ACE2, sequence (Q9BYF1 18-740): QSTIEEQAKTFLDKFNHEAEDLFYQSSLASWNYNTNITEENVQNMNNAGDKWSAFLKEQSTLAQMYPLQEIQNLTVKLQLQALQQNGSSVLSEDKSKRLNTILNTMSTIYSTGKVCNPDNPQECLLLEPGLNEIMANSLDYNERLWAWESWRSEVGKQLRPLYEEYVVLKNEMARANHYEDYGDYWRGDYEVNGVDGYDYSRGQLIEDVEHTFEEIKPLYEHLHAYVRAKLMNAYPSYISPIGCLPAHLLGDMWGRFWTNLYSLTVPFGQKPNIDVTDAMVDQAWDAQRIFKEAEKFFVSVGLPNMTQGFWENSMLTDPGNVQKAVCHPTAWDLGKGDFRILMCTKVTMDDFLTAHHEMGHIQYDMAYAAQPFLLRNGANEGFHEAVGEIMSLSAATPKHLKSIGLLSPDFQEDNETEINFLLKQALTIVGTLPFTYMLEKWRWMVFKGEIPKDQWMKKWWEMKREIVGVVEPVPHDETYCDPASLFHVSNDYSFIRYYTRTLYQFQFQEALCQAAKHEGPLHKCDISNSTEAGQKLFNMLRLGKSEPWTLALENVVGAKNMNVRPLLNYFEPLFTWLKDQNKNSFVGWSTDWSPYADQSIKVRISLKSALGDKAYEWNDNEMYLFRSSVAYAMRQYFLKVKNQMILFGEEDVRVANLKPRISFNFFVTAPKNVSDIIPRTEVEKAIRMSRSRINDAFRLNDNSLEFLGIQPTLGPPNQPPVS
Series [5] deals with SARS-CoV-2 spike RBD (SARS-CoV-2, UniProt P0DTC2 319-541). Kind of series: ELISA.
For series [6], the target named is PDGF-AA (UniProt P04085 87-211). Nature of the series: ELISA. As to conditions: protein: commercial; chain copies: 2.
The target in series [7] is SARS-CoV spike protein (SARS-CoV, UniProt P59594 14-1195). Nature of the series: ELISA. As to conditions: protein: commercial; chain copies: 3; label: 5'-biotin (BLI, ELISA); Cy3 (flow cytometry); FAM (imaging); G-quadruplex.
For series [8], the target named is MERS-CoV spike protein (MERS-CoV, UniProt K9N5Q8 18-1296). Nature of the series: ELISA. As to conditions: protein: commercial; chain copies: 3; label: 5'-biotin (BLI, ELISA); Cy3 (flow cytometry); FAM (imaging); G-quadruplex.
MERS-CoV spike protein, sequence (K9N5Q8 18-1296): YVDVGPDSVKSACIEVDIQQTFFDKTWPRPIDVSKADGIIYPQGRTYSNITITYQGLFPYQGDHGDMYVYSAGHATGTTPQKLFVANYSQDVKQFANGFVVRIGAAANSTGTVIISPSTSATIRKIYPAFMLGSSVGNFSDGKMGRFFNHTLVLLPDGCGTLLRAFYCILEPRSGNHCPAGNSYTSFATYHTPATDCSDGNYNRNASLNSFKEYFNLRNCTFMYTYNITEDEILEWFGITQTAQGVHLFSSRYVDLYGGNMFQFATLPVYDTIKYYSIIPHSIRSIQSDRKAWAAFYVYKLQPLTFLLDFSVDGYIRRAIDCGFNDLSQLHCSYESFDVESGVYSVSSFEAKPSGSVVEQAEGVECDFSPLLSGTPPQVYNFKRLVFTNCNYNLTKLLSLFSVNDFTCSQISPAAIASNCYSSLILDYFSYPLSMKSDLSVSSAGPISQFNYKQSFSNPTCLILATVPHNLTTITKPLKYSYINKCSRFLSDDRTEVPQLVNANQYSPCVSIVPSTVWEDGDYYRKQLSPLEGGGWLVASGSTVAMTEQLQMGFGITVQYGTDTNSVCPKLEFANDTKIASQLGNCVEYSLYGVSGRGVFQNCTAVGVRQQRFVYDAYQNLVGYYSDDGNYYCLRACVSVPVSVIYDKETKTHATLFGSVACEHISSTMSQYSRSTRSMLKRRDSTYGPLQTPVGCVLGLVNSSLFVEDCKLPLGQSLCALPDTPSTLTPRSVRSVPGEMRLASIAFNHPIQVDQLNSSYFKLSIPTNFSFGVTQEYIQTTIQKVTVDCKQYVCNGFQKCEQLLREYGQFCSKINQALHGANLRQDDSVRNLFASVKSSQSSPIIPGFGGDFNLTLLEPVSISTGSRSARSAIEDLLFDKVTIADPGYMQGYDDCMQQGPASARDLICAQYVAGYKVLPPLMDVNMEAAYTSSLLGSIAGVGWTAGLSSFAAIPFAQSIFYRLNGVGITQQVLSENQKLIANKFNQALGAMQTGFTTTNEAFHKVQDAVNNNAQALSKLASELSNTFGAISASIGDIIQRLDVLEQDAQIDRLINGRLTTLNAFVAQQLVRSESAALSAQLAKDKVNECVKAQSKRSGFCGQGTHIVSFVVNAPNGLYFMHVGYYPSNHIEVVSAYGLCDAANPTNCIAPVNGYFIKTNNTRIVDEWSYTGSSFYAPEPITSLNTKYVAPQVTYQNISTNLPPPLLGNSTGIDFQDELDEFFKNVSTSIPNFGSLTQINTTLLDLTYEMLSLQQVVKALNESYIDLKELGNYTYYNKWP

HCoV-HKU1 spike protein, sequence (Q5MQD0 13-1300): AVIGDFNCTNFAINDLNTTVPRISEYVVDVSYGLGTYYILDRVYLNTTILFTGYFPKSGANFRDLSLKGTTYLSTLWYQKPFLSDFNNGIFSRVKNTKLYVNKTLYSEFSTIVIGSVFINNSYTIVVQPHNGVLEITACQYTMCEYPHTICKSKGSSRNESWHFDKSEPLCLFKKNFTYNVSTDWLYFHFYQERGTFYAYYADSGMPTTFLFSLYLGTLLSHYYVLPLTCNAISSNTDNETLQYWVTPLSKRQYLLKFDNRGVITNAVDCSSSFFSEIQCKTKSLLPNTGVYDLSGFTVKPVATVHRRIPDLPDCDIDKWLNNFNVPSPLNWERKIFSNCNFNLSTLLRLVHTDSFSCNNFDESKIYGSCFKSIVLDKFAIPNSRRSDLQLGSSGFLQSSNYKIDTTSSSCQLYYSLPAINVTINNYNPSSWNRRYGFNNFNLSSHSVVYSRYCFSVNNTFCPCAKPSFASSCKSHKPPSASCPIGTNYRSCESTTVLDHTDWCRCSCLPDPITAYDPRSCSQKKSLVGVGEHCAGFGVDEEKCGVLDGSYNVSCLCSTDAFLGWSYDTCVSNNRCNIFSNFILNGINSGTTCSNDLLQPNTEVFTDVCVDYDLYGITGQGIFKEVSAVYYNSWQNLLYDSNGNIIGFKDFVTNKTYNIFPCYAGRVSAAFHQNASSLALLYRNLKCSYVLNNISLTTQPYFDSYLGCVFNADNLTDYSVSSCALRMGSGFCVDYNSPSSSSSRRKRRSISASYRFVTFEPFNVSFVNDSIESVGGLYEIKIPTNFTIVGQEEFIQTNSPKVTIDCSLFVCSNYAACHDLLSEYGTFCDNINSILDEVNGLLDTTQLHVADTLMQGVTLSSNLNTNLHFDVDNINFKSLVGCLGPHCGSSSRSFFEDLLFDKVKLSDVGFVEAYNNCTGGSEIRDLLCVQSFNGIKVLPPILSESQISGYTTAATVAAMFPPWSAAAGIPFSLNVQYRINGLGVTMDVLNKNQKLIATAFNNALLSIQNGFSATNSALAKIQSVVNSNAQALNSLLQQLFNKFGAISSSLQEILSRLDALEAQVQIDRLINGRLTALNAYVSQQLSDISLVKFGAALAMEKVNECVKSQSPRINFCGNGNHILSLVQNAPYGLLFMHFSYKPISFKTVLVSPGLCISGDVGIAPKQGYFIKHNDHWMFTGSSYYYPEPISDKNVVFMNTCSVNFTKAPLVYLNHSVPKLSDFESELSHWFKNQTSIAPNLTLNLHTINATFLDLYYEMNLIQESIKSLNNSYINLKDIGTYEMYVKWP
TLR4, sequence (O00206 24-631): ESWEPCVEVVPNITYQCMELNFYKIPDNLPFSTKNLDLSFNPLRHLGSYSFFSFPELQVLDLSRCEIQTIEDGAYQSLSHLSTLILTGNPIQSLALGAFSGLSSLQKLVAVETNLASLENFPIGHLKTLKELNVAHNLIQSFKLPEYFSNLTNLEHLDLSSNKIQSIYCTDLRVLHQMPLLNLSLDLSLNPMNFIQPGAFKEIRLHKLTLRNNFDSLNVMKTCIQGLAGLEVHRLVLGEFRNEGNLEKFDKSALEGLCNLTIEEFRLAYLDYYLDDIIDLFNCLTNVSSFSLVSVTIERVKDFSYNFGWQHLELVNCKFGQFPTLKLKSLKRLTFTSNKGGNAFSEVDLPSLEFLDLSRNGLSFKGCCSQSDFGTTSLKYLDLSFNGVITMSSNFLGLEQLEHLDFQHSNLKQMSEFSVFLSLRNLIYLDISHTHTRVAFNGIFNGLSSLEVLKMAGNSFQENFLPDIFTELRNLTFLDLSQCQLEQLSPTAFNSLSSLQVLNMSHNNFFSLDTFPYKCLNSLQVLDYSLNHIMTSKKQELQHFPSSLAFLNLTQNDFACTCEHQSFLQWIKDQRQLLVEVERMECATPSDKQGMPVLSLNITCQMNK

B1: ST-6-1 (structured_DNA)
DNA: AGGGCATCAAAGGGGGGAGGGCGGGTGGATTGGATGCCGA
Regarding B1, the binding result is given as “binds” in series [1]; “no binding” in series [2]; “no binding” in series [3]; “no binding” in series [4]; “no binding” in series [5]; “no binding” in series [6]. Further, the binding result in series [7] and in series [8] was “no binding” throughout.

B2: ST-6-2 (structured_DNA)
DNA: GGGGAGGGCGGGTGGATTGGATGCCGA
With B2, the binding result is “binds” in series [1]; “no binding” in series [2]; “no binding” in series [3]; “no binding” in series [4]; “no binding” in series [5]; “no binding” in series [6]. The binding result in series [7] and in series [8] was “no binding” in each case.

B3: ST-6 (structured_DNA)
DNA: AGCAGCACAGAGGTCAGATGAGGGCATCAAAGGGGGGAGGGCGGGTGGATTGGATGCCGACCTATGCGTGCTACCGTGAA
On to B3, for which the binding result in series [1] was “binds”; in series [2] it was “no binding”; in series [3], “no binding”; in series [4], “no binding”; in series [5] it was “no binding”; in series [6] it was “no binding”. Moreover, the binding result in series [7] and in series [8] was “no binding” each time.
